From patent US20240059790A1 (JANUX THERAPEUTICS, published 2024) come the findings set out here.

This assay deals with T1, polypeptide complex 1 (PC-1).
T1 construct: also called Intact PC-1; uncleaved PC-1
Description: ELISA ('Cyno Albumin ELISA').

B1: cynomolgus monkey albumin (other)
chain: DTHKSEVAHRFKDLGEEHFKGLVLVAFSQYLQQCPFEEHVKLVNEVTEFAKTCVADESAENCDKSLHTLFGDKLCTVATLRETYGEMADCCAKQEPERNECFLQHKDDNPNLPPLVRPEVDVMCTAFHDNEATFLKKYLYEVARRHPYFYAPELLFFAARYKAAFAECCQAADKAACLLPKLDELRDEGKASSAKQRLKCASLQKFGDRAFKAWAVARLSQKFPKAEFAEVSKLVTDLTKVHTECCHGDLLECADDRADLAKYMCENQDSISSKLKECCDKPLLEKSHCLAEVENDEMPADLPSLAADYVESKDVCKNYAEAKDVFLGMFLYEYARRHPDYSVMLLLRLAKAYEATLEKCCAAADPHECYAKVFDEFQPLVEEPQNLVKQNCELFEQLGEYKFQNALLVRYTKKVPQVSTPTLVEVSRNLGKVGAKCCKLPEAKRMPCAEDYLSVVLNRLCVLHEKTPVSEKVTKCCTESLVNRRPCFSALELDEAYVPKAFNAETFTFHADMCTLSEKEKQVKKQTALVELVKHKPKATKEQLKGVMDNFAAFVEKCCKADDKEACFAEEGPKFVAASQAALA
notes: Antigen immobilized on the ELISA plate
For B1, the binding result was “binds”.
